Data reported in patent US9708383 (Novo Nordisk, dated 2017).
*1 amine or outer side, *2 acyl side, *3 side chain or, on linkers, in order; H or OH if unused. Where no end group is shown, it is not given here. Side-chain parts run from the residue outwards. [ ]: non-standard residue; d: D form. The star is where a group is joined. 8‑(4-carboxyphenoxy)octanoyl = O=C(O)c1ccc(OCCCCCCCC(=O)*)cc1; Decanoyl(10-(4-HOOC-PhO)) = O=C(O)c1ccc(OCCCCCCCCCC(=O)*)cc1; γGlu = O=C(O)[C@H](CCC(=O)[*:2])N[*:1]; 13‑carboxytridecanoyl = C14 diacid; AEEA = NCCOCCOCC(=O)O; Aib = CC(C)(N)C(=O)O

target: T1, human GLP-1 receptor (human, UniProt P43220 24-463); experiment: SPA, displacement of 125I-GLP-1(7-36)NH2, 0.005% HSA
T1 construct: whole, on cells; Used as purified membranes of the transfected hamster cells, not whole cells; also called hGLP-1

| Binder | IC50 |
| --- | --- |
| H[Aib]EGTFTSDVSK([AEEA-γGlu-AEEA-13‑carboxytridecanoyl])YLEEQAAK([AEEA-γGlu-AEEA-13‑carboxytridecanoyl])EFIAWLVQGRG [GLP-1 derivative of Example 86: [Aib8,Lys18,Glu22,Gln34]-GLP-1-(7-37)-peptide] | < 1000 nM |
| H[Aib]EGTFTSDVSK([γGlu-AEEA-AEEA-Decanoyl(10-(4-HOOC-PhO))])YLEEQAAK([γGlu-AEEA-AEEA-Decanoyl(10-(4-HOOC-PhO))])EFIAWLVQGRG [GLP-1 derivative of Example 82: [Aib8,Lys18,Glu22,Gln34]-GLP-1-(7-37)-peptide] | < 1000 nM |
| H[Aib]EGTFTSDVSK([AEEA-AEEA-13‑carboxytridecanoyl])YLEEQAAK([AEEA-AEEA-13‑carboxytridecanoyl])EFIAWLVQGRG [GLP-1 derivative of Example 84: [Aib8,Lys18,Glu22,Gln34]-GLP-1-(7-37)-peptide] | < 1000 nM |
| H[Aib]EGTFTSDVSK([AEEA-AEEA-AEEA-AEEA-γGlu-Decanoyl(10-(4-HOOC-PhO))])YLEEQAAK([AEEA-AEEA-AEEA-AEEA-γGlu-Decanoyl(10-(4-HOOC-PhO))])EFIAWLVQGRG [GLP-1 derivative of Example 69: [Aib8,Lys18,Glu22,Gln34]-GLP-1-(7-37)-peptide] | < 1000 nM |
| H[Aib]EGTFTSDVSK([AEEA-γGlu-AEEA-Decanoyl(10-(4-HOOC-PhO))])YLEEQAAK([AEEA-γGlu-AEEA-Decanoyl(10-(4-HOOC-PhO))])EFIAWLVQGRG [GLP-1 derivative of Example 90: [Aib8,Lys18,Glu22,Gln34]-GLP-1-(7-37)-peptide] | < 1000 nM |
| H[Aib]EGTFTSDVSK([AEEA-AEEA-γGlu-2‑phenylcyclopropanecarbonyl])YLEEQAAK([AEEA-AEEA-γGlu-2‑phenylcyclopropanecarbonyl])EFIAWLVQGRG [GLP-1 derivative of Example 79: [Aib8,Lys18,Glu22,Gln34]-GLP-1-(7-37)-peptide] | < 1000 nM |
| H[Aib]EGTFTSDVSK([AEEA-AEEA-γGlu-13‑carboxytridecanoyl])YLEEQAAK([AEEA-AEEA-γGlu-13‑carboxytridecanoyl])EFIAWLVQGRG [GLP-1 derivative of Example 80: [Aib8,Lys18,Glu22,Gln34]-GLP-1-(7-37)-peptide] | < 1000 nM |
| H[Aib]EGTFTSDVSK([AEEA-AEEA-Decanoyl(10-(4-HOOC-PhO))])YLEEQAAK([AEEA-AEEA-Decanoyl(10-(4-HOOC-PhO))])EFIAWLVQGRG [GLP-1 derivative of Example 85: [Aib8,Lys18,Glu22,Lys26,Gln34]-GLP-1-(7-37)-peptide] | < 1000 nM |
| H[Aib]EGTFTSDVSK([AEEA-AEEA-γGlu-8‑(4-carboxyphenoxy)octanoyl])YLEEQAAK([AEEA-AEEA-γGlu-8‑(4-carboxyphenoxy)octanoyl])EFIAWLVQGRG [GLP-1 derivative of Example 87: [Aib8,Lys18,Glu22,Gln34]-GLP-1-(7-37)-peptide] | < 1000 nM |
| H[Aib]EGTFTSDVSK([AEEA-AEEA-AEEA-AEEA-Decanoyl(10-(4-HOOC-PhO))])YLEEQAAK([AEEA-AEEA-AEEA-AEEA-Decanoyl(10-(4-HOOC-PhO))])EFIAWLVQGRG [GLP-1 derivative of Example 71: [Aib8,Lys18,Glu22,Gln34]-GLP-1-(7-37)-peptide] | < 1000 nM |

target: T1, human GLP-1 receptor; experiment: SPA, 2.0% vs 0.005% HSA

| Binder | ratio IC50 high HSA/IC50 low HSA |
| --- | --- |
| H[Aib]EGTFTSDVSK([AEEA-γGlu-AEEA-13‑carboxytridecanoyl])YLEEQAAK([AEEA-γGlu-AEEA-13‑carboxytridecanoyl])EFIAWLVQGRG [GLP-1 derivative of Example 86: [Aib8,Lys18,Glu22,Gln34]-GLP-1-(7-37)-peptide] | > 1 |
| H[Aib]EGTFTSDVSK([γGlu-AEEA-AEEA-Decanoyl(10-(4-HOOC-PhO))])YLEEQAAK([γGlu-AEEA-AEEA-Decanoyl(10-(4-HOOC-PhO))])EFIAWLVQGRG [GLP-1 derivative of Example 82: [Aib8,Lys18,Glu22,Gln34]-GLP-1-(7-37)-peptide] | > 1 |
| H[Aib]EGTFTSDVSK([AEEA-AEEA-13‑carboxytridecanoyl])YLEEQAAK([AEEA-AEEA-13‑carboxytridecanoyl])EFIAWLVQGRG [GLP-1 derivative of Example 84: [Aib8,Lys18,Glu22,Gln34]-GLP-1-(7-37)-peptide] | > 1 |
| H[Aib]EGTFTSDVSK([AEEA-AEEA-AEEA-AEEA-γGlu-Decanoyl(10-(4-HOOC-PhO))])YLEEQAAK([AEEA-AEEA-AEEA-AEEA-γGlu-Decanoyl(10-(4-HOOC-PhO))])EFIAWLVQGRG [GLP-1 derivative of Example 69: [Aib8,Lys18,Glu22,Gln34]-GLP-1-(7-37)-peptide] | > 1 |
| H[Aib]EGTFTSDVSK([AEEA-γGlu-AEEA-Decanoyl(10-(4-HOOC-PhO))])YLEEQAAK([AEEA-γGlu-AEEA-Decanoyl(10-(4-HOOC-PhO))])EFIAWLVQGRG [GLP-1 derivative of Example 90: [Aib8,Lys18,Glu22,Gln34]-GLP-1-(7-37)-peptide] | > 1 |
| H[Aib]EGTFTSDVSK([AEEA-AEEA-γGlu-2‑phenylcyclopropanecarbonyl])YLEEQAAK([AEEA-AEEA-γGlu-2‑phenylcyclopropanecarbonyl])EFIAWLVQGRG [GLP-1 derivative of Example 79: [Aib8,Lys18,Glu22,Gln34]-GLP-1-(7-37)-peptide] | > 1 |
| H[Aib]EGTFTSDVSK([AEEA-AEEA-γGlu-13‑carboxytridecanoyl])YLEEQAAK([AEEA-AEEA-γGlu-13‑carboxytridecanoyl])EFIAWLVQGRG [GLP-1 derivative of Example 80: [Aib8,Lys18,Glu22,Gln34]-GLP-1-(7-37)-peptide] | > 1 |
| H[Aib]EGTFTSDVSK([AEEA-AEEA-Decanoyl(10-(4-HOOC-PhO))])YLEEQAAK([AEEA-AEEA-Decanoyl(10-(4-HOOC-PhO))])EFIAWLVQGRG [GLP-1 derivative of Example 85: [Aib8,Lys18,Glu22,Lys26,Gln34]-GLP-1-(7-37)-peptide] | > 1 |
| H[Aib]EGTFTSDVSK([AEEA-AEEA-γGlu-8‑(4-carboxyphenoxy)octanoyl])YLEEQAAK([AEEA-AEEA-γGlu-8‑(4-carboxyphenoxy)octanoyl])EFIAWLVQGRG [GLP-1 derivative of Example 87: [Aib8,Lys18,Glu22,Gln34]-GLP-1-(7-37)-peptide] | > 1 |
| H[Aib]EGTFTSDVSK([AEEA-AEEA-AEEA-AEEA-Decanoyl(10-(4-HOOC-PhO))])YLEEQAAK([AEEA-AEEA-AEEA-AEEA-Decanoyl(10-(4-HOOC-PhO))])EFIAWLVQGRG [GLP-1 derivative of Example 71: [Aib8,Lys18,Glu22,Gln34]-GLP-1-(7-37)-peptide] | > 1 |
